The results in this text go back to patent US20240059789A1 (Janssen / Centocor, published 2024).

In the assay the target is Human PSMA on prostate cancer cell lines (C4-2B, 22RV1) (human, UniProt Q04609 1-750). Description: cell-based or functional assay.
Human PSMA on prostate cancer cell lines (C4-2B, 22RV1), sequence (Q04609 whole entry): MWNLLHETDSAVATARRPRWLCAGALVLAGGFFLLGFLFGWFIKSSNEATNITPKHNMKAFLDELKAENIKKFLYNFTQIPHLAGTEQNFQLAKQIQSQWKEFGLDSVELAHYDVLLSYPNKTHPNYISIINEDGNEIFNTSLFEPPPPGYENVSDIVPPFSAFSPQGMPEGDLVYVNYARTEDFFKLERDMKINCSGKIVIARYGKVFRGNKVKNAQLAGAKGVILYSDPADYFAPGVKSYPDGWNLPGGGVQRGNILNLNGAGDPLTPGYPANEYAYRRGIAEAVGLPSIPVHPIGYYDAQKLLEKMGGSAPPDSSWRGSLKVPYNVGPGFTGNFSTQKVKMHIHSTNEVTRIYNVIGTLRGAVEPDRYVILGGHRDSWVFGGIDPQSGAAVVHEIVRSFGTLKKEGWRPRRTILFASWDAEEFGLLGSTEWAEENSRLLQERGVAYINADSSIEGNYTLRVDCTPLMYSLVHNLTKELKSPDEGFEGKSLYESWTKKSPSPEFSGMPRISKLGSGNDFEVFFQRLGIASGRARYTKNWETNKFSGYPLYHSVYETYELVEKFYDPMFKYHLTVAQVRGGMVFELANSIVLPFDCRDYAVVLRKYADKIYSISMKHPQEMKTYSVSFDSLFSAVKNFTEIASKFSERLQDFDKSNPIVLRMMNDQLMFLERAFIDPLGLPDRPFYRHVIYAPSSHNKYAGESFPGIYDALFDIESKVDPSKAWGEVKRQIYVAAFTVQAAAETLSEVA

B1: PS3B1354 (bispecific antibody, human IgG1, lambda, L234A L235A)
heavy 1: QVQLQQSGPRLVRPSQTLSLTCAISGDSVFNNNAAWSWIRQSPSRGLEWLGRTYYRSKWLYDYAVSVKSRITVNPDTSRNQFTLQLNSVTPEDTALYYCARGYSSSFDYWGQGTLVTVSSASTKGPSVFPLAPSSKSTSGGTAALGCLVKDYFPEPVTVSWNSGALTSGVHTFPAVLQSSGLYSLSSVVTVPSSSLGTQTYICNVNHKPSNTKVDKKVEPKSCDKTHTCPPCPAPEAAGGPSVFLFPPKPKDTLMISRTPEVTCVVVSVSHEDPEVKFNWYVDGVEVHNAKTKPREEQYNSTYRVVSVLTVLHQDWLNGKEYKCKVSNKALPAPIEKTISKAKGQPREPQVYTLPPSREEMTKNQVSLTCLVKGFYPSDIAVEWESNGQPENNYKTTPPVLDSDGSFLLYSKLTVDKSRWQQGNVFSCSVMHEALHNHYTQKSLSLSPGK
light 1: QSALTQPASVSGSPGQSITISCTGTSSNIGTYKFVSWYQQHPDKAPKVLLYEVSKRPSGVSSRFSGSKSGNTASLTISGLQAEDQADYHCVSYAGSGTLLFGGGTKLTVLGQPKAAPSVTLFPPSSEELQANKATLVCLISDFYPGAVTVAWKADSSPVKAGVETTTPSKQSNNKYAASSYLSLTPEQWKSHRSYSCQVTHEGSTVEKTVAPTECS
heavy 2: EVQLVESGGGLVQPGGSLRLSCAASGFTFSSYAMSWVRQAPGKGLEWVSAISGGSGSTYYADSVKGRFTISRDNSKNTLYLQMNSLRAEDSAVYYCAKDGVGATPYYFDYWGQGTLVTVSSASTKGPSVFPLAPSSKSTSGGTAALGCLVKDYFPEPVTVSWNSGALTSGVHTFPAVLQSSGLYSLSSVVTVPSSSLGTQTYICNVNHKPSNTKVDKKVEPKSCDKTHTCPPCPAPEAAGGPSVFLFPPKPKDTLMISRTPEVTCVVVSVSHEDPEVKFNWYVDGVEVHNAKTKPREEQYNSTYRVVSVLTVLHQDWLNGKEYKCKVSNKALPAPIEKTISKAKGQPREPQVYTLPPSREEMTKNQVSLTCLVKGFYPSDIAVEWESNGQPENNYKTTPPVLDSDGSFFLYSRLTVDKSRWQQGNVFSCSVMHEALHNHYTQKSLSLSPGK
light 2: QSVLTQPPSVSAAPGQKVTISCSGSSSNIGNNYVSWYQQLPGTAPKLLIYDNNKRPSGIPDRFSGSKSGTSATLGITGLQTGDEADYYCGTWDSSLSAYVFGTGTKVTVLGQPKAAPSVTLFPPSSEELQANKATLVCLISDFYPGAVTVAWKADSSPVKAGVETTTPSKQSNNKYAASSYLSLTPEQWKSHRSYSCQVTHEGSTVEKTVAPTECS
Turning to B1, the “Cytotoxicity (C4-2B cells, 3:1 E:T ratio, 5 Day) at 3.3 nM” value was found to be 30%; the “Cytotoxicity (C4-2B cells, 3:1 E:T ratio, 5 Day) at 10 nM” value came to 72%; the “Cytotoxicity (C4-2B cells, 3:1 E:T ratio, 5 Day) at 30 nM” value was 84%.

B2: PSMB937 (bispecific antibody, human IgG1, lambda, L234A L235A)
heavy 1: QVQLQQSGPGLVKPSQTLSLTCAISGDSVFNNNAAWSWIRQSPSRGLEWLGRTYYRSKWLYDYAVSVKSRITINPDTSKNQFSLQLNSVTPEDTAVYYCARGYSSSFDYWGQGTLVTVSSASTKGPSVFPLAPSSKSTSGGTAALGCLVKDYFPEPVTVSWNSGALTSGVHTFPAVLQSSGLYSLSSVVTVPSSSLGTQTYICNVNHKPSNTKVDKKVEPKSCDKTHTCPPCPAPEAAGGPSVFLFPPKPKDTLMISRTPEVTCVVVSVSHEDPEVKFNWYVDGVEVHNAKTKPREEQYNSTYRVVSVLTVLHQDWLNGKEYKCKVSNKALPAPIEKTISKAKGQPREPQVYTLPPSREEMTKNQVSLTCLVKGFYPSDIAVEWESNGQPENNYKTTPPVLDSDGSFLLYSKLTVDKSRWQQGNVFSCSVMHEALHNHYTQKSLSLSPG
light 1: QSALTQPASVSGSPGQSITISCTGTSSNIGTYKFVSWYQQHPGKAPKVMIYEVSKRPSGVSNRFSGSKSGNTASLTISGLQAEDEADYYCVSYAGSGTLLFGGGTKLTVLGQPKAAPSVTLFPPSSEELQANKATLVCLISDFYPGAVTVAWKADSSPVKAGVETTTPSKQSNNKYAASSYLSLTPEQWKSHRSYSCQVTHEGSTVEKTVAPTECS
heavy 2: EVQLVESGGGLVQPGGSLRLSCAASGFTFSSYAMSWVRQAPGKGLEWVSAISGGSGSTYYADSVKGRFTISRDNSKNTLYLQMNSLRAEDSAVYYCAKDGVGATPYYFDYWGQGTLVTVSSASTKGPSVFPLAPSSKSTSGGTAALGCLVKDYFPEPVTVSWNSGALTSGVHTFPAVLQSSGLYSLSSVVTVPSSSLGTQTYICNVNHKPSNTKVDKKVEPKSCDKTHTCPPCPAPEAAGGPSVFLFPPKPKDTLMISRTPEVTCVVVSVSHEDPEVKFNWYVDGVEVHNAKTKPREEQYNSTYRVVSVLTVLHQDWLNGKEYKCKVSNKALPAPIEKTISKAKGQPREPQVYTLPPSREEMTKNQVSLTCLVKGFYPSDIAVEWESNGQPENNYKTTPPVLDSDGSFFLYSRLTVDKSRWQQGNVFSCSVMHEALHNHYTQKSLSLSPG
light 2: QSVLTQPPSVSAAPGQKVTISCSGSSSNIGNNYVSWYQQLPGTAPKLLIYDNNKRPSGIPDRFSGSKSGTSATLGITGLQTGDEADYYCGTWDSSLSAYVFGTGTKVTVLGQPKAAPSVTLFPPSSEELQANKATLVCLISDFYPGAVTVAWKADSSPVKAGVETTTPSKQSNNKYAASSYLSLTPEQWKSHRSYSCQVTHEGSTVEKTVAPTECS
In the case of B2, the “Cytotoxicity (C4-2B cells, 3:1 E:T ratio, 5 Day) at 30 nM” value stood at 41%.

B3: PS3B1355 (bispecific antibody, human IgG1, lambda, L234A L235A)
heavy 1: QVQLQQSGPRLVRPSQTLSLTCAISGDSVFNNNAAWSWIRQSPSRGLEWLGRTYYRSKWLYDYAVSVKSRITVNPDTSRNQFTLQLNSVTPEDTALYYCARGYSSSFDYWGQGTLVTVSSASTKGPSVFPLAPSSKSTSGGTAALGCLVKDYFPEPVTVSWNSGALTSGVHTFPAVLQSSGLYSLSSVVTVPSSSLGTQTYICNVNHKPSNTKVDKKVEPKSCDKTHTCPPCPAPEAAGGPSVFLFPPKPKDTLMISRTPEVTCVVVSVSHEDPEVKFNWYVDGVEVHNAKTKPREEQYNSTYRVVSVLTVLHQDWLNGKEYKCKVSNKALPAPIEKTISKAKGQPREPQVYTLPPSREEMTKNQVSLTCLVKGFYPSDIAVEWESNGQPENNYKTTPPVLDSDGSFLLYSKLTVDKSRWQQGNVFSCSVMHEALHNHYTQKSLSLSPGK
light 1: QSALTQPASVSGSPGQSITISCTGTSSNIGTYKFVSWYQQHPDKAPKVLLYEVSKRPSGVSSRFSGSKSGNTASLTISGLQAEDQADYHCVSYAGSGTLLFGGGTKLTVLGQPKAAPSVTLFPPSSEELQANKATLVCLISDFYPGAVTVAWKADSSPVKAGVETTTPSKQSNNKYAASSYLSLTPEQWKSHRSYSCQVTHEGSTVEKTVAPTECS
heavy 2: EVQLVESGGGLVQPGGSLRLSCAASGFTFSSYAMSWVRQAPGKGLEWVSAISGGSGSTYYADSVKGRFTISRDNSKNTLYLQMNSLRAEDSAVYYCAKDGVGATPYYFDYWGQGTLVTVSSASTKGPSVFPLAPSSKSTSGGTAALGCLVKDYFPEPVTVSWNSGALTSGVHTFPAVLQSSGLYSLSSVVTVPSSSLGTQTYICNVNHKPSNTKVDKKVEPKSCDKTHTCPPCPAPEAAGGPSVFLFPPKPKDTLMISRTPEVTCVVVSVSHEDPEVKFNWYVDGVEVHNAKTKPREEQYNSTYRVVSVLTVLHQDWLNGKEYKCKVSNKALPAPIEKTISKAKGQPREPQVYTLPPSREEMTKNQVSLTCLVKGFYPSDIAVEWESNGQPENNYKTTPPVLDSDGSFFLYSRLTVDKSRWQQGNVFSCSVMHEALHNHYTQKSLSLSPGK
light 2: QSVLTQPPSVSAAPGQKVTISCSGSSSNIGINYVSWYQQLPGTAPKLLIYDNNKRPSGIPDRFSGSKSGTSATLGITGLQTGDEADYYCGTWDSSLSAVVFGGGTKLTVLGQPKAAPSVTLFPPSSEELQANKATLVCLISDFYPGAVTVAWKADSSPVKAGVETTTPSKQSNNKYAASSYLSLTPEQWKSHRSYSCQVTHEGSTVEKTVAPTECS
In the case of B3, the “Cytotoxicity (C4-2B cells, 3:1 E:T ratio, 5 Day) at 0.3 nM” value turned out to be 92%; the “Cytotoxicity (C4-2B cells, 3:1 E:T ratio, 5 Day) at 1.1 nM” value came out at 97%; the “Cytotoxicity (C4-2B cells, 3:1 E:T ratio, 5 Day) at 3.3 nM” value is 96%; the “Cytotoxicity (C4-2B cells, 3:1 E:T ratio, 5 Day) at 10 nM” value worked out at 95%. For the same molecule, the “Cytotoxicity (C4-2B cells, 3:1 E:T ratio, 5 Day) at 30 nM” value is 94%.

B4: PS3B1358 (bispecific antibody, human IgG1, lambda, L234A L235A)
heavy 1: QVQLQQSGPGLVKPSQTLSLTCAISGDSVFNNNAAWSWIRQSPSRGLEWLGRTYYRSKWLYDYAVSVKSRITINPDTSKNQFSLQLNSVTPEDTAVYYCARGYSSSFDYWGQGTLVTVSSASTKGPSVFPLAPSSKSTSGGTAALGCLVKDYFPEPVTVSWNSGALTSGVHTFPAVLQSSGLYSLSSVVTVPSSSLGTQTYICNVNHKPSNTKVDKKVEPKSCDKTHTCPPCPAPEAAGGPSVFLFPPKPKDTLMISRTPEVTCVVVSVSHEDPEVKFNWYVDGVEVHNAKTKPREEQYNSTYRVVSVLTVLHQDWLNGKEYKCKVSNKALPAPIEKTISKAKGQPREPQVYTLPPSREEMTKNQVSLTCLVKGFYPSDIAVEWESNGQPENNYKTTPPVLDSDGSFLLYSKLTVDKSRWQQGNVFSCSVMHEALHNHYTQKSLSLSPGK
light 1: QSALTQPASVSGSPGQSITISCTGTSSNIGTYKFVSWYQQHPGKAPKVMIYEVSKRPSGVSNRFSGSKSGNTASLTISGLQAEDEADYYCVSYAGSGTLLFGGGTKLTVLGQPKAAPSVTLFPPSSEELQANKATLVCLISDFYPGAVTVAWKADSSPVKAGVETTTPSKQSNNKYAASSYLSLTPEQWKSHRSYSCQVTHEGSTVEKTVAPTECS
heavy 2: EVQLVESGGGLVQPGGSLRLSCAASGFTFSSYAMSWVRQAPGKGLEWVSAISGGSGSTYYADSVKGRFTISRDNSKNTLYLQMNSLRAEDSAVYYCAKDGVGATPYYFDYWGQGTLVTVSSASTKGPSVFPLAPSSKSTSGGTAALGCLVKDYFPEPVTVSWNSGALTSGVHTFPAVLQSSGLYSLSSVVTVPSSSLGTQTYICNVNHKPSNTKVDKKVEPKSCDKTHTCPPCPAPEAAGGPSVFLFPPKPKDTLMISRTPEVTCVVVSVSHEDPEVKFNWYVDGVEVHNAKTKPREEQYNSTYRVVSVLTVLHQDWLNGKEYKCKVSNKALPAPIEKTISKAKGQPREPQVYTLPPSREEMTKNQVSLTCLVKGFYPSDIAVEWESNGQPENNYKTTPPVLDSDGSFFLYSRLTVDKSRWQQGNVFSCSVMHEALHNHYTQKSLSLSPGK
light 2: QSVLTQPPSVSAAPGQKVTISCSGSSSNIGINYVSWYQQLPGTAPKLLIYDNNKRPSGIPDRFSGSKSGTSATLGITGLQTGDEADYYCGTWDSSLSAVVFGGGTKLTVLGQPKAAPSVTLFPPSSEELQANKATLVCLISDFYPGAVTVAWKADSSPVKAGVETTTPSKQSNNKYAASSYLSLTPEQWKSHRSYSCQVTHEGSTVEKTVAPTECS
Regarding B4, the “Cytotoxicity (C4-2B cells, 3:1 E:T ratio, 5 Day) at 0.3 nM” value came out at 68%; the “Cytotoxicity (C4-2B cells, 3:1 E:T ratio, 5 Day) at 1.1 nM” value is 90%; the “Cytotoxicity (C4-2B cells, 3:1 E:T ratio, 5 Day) at 3.3 nM” value amounted to 93%; the “Cytotoxicity (C4-2B cells, 3:1 E:T ratio, 5 Day) at 10 nM” value was 94%. Also, the “Cytotoxicity (C4-2B cells, 3:1 E:T ratio, 5 Day) at 30 nM” value is 88%.
